Measured values from US20080241919A1, “Defined media for pluripotent stem cell culture” (The Burnham Institute of Medical Research, priority 2003, published 2008).

Tested on: human embryonic stem cells (hESCs)
Assay: Other growth factors in place of bFGF for undifferentiated growth of hESCs
Type: cell-based
Conditions: feeder- and serum-free conditions
Procedure: All the growth factors were dissolved in a PBS buffer that contained 0.5% BSA, 1 mM DTT (Dithiothreitol) and 10% glyceral as a 10 μg/ml (500×) stock solution and stored in aliquots at −80° C. These factors were added individually to the hESC cultures at a concentration of 20 ng/ml, in the absence of bFGF or in the presence of a low concentration of bFGF (4 ng/ml). Seven days after seeding undifferentiated hESCs on laminin/collagen-coated plates, the cultures were examined.

B1: activin-A: human growth factor tested in place of bFGF (protein, UniProt P08476 311-426, looked up)
Inhibin beta A chain: GLECDGKVNICCKKQFFVSFKDIGWNDWIIAPSGYHANYCEGECPSHIAGTSGSSLSFHSTVINHYRMRGHSPFANLKSCCVPTKLRPMSMLYYDDGQNIIKKDIQNMIVEECGCS
ability to replace bFGF in supporting undifferentiated growth of hESCs: can not replace bFGF
